The record followed here is patent US20220235356.

The data set has as its target KRAS G12D (GMPPNP-loaded) G12D (Homo sapiens) (UniProt P01116). The experiment in a line: inhibition. Particulars: Raf-1 binding remaining vs no aptamer, average of four aptamers at 5x KRAS; PBS, 37 C, ELISA. Background: ELISA stands for enzyme-linked immunosorbent assay.
For the sequence “NNNNNNNNGATCATGNNCCGGGTTCGGNTGGGGGGNNNNNNCATGATCTACTTGACTAGTNNN [NBK1-1]”, the activity turned out to be 50%.

“NNNNNNNNNNNNNNNCATANNNNNCGGTACGTCCGNNTATGNGTGGGNGGTAAGGGAGACCNCNTGACTAGTACANNNCCACNNNN [NBK2]” displayed an activity of 50%. The sequence “NCATANNNNNCGGTACGTCCGNNTATGNGTGGGNGGTAAGGGAGACCNCNTGACTAGTACANNNCCACN [NBK2-1]” registered an activity of 50%. The sequence “NNNNNNNNNNNNGGNCATNNGATCATGNNCCGGGTTCGGNTGGGGGGNNNNNNCATGATCTACTTGACTAGTANATGNCCNNNNNN [NBK1]” displayed an activity of 50%.
